# According to paper PMC4877171 (Chemical research in toxicology, 2015):
# T1: purified rat cytosolic TrxR (rat, UniProt O89049 1-499, selenocysteine at 498)
# T1 sequence (looked up): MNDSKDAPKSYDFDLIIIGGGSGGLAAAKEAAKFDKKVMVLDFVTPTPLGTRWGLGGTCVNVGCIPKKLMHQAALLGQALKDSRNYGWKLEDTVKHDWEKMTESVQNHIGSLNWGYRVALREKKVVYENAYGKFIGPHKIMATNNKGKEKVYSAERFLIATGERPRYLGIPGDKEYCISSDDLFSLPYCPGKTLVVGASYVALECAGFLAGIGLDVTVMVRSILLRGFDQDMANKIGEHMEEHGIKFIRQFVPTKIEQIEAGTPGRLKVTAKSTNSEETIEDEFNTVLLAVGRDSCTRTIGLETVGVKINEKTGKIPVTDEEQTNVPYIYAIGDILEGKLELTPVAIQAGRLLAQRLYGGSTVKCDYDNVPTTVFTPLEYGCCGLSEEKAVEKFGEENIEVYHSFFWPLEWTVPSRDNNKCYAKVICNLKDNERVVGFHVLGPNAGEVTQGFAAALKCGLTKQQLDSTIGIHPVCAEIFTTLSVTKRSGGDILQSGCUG
# B1: recombinant human Trx1 (natural protein)
# chain: MVKQIESKTAFQEALDAAGDKLVVVDFSATWCGPCKMIKPFFHSLSEKYSNVIFLEVDVDDCQDVASECEVKCMPTFQFFKKGQKVGEFSGANKEKLEATINELV
# How the values were obtained:
# Experiment in all cases: cross-linking
# [1] = target: Human recombinant TrxR1 mutant enzyme (Sec498Cys) (human) (UniProt Q16881)
# [2] = target: T1, purified rat cytosolic TrxR
# cross-linking = target: the molecule itself
molecule,measurement,setting,value
Human recombinant TrxR1 mutant enzyme (Sec498Cys) (from UniProt Q16881-5 1-499),stoichiometry N,[1],2
B1,binding result,[2],binds
same,stoichiometry N,cross-linking,2
